Reference: the supplement of paper PMC11865577

Legend:
Test in all cases: pull-down binding Z-score (relative to library population); higher = stronger binding
[1] = test system: G-clamp-N3 (biotin conjugate); conditions: RNA library: Library-1 (pre-miRNA loops + repeats)
How it was run: (§1)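 Heat-folded RNA library (1 μg, Cy5 or Cy3 end label, phosphate/NaCl/KCl buffer) was captured for 60 min at 25 °C on streptavidin beads displaying 100 pmol of biotin-conjugated small molecule, then washed three times. The bound fraction, eluted in hot SDS, was hybridised to a DNA barcode microarray at 55.5 °C for 20 h. Z-scores for binding were taken against the library mean and standard deviation after beads-only subtraction and trimmed averaging of replicate barcoded probes.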

[2] = test system: TO-3-N3 (biotin conjugate); conditions: RNA library: Library-2
How it was run: as §1

[3] = test system: TO-3-N3-2 (biotin conjugate); conditions: RNA library: Library-2
How it was run: as §1

TO-N3 (biotin conjugate) = conditions: RNA library: Library-2
How it was run: as §1

[4] = test system: TO-N3-2 (biotin conjugate); conditions: RNA library: Library-2
How it was run: as §1

Sequence | pull-down binding Z-score [1] | pull-down binding Z-score [2] | pull-down binding Z-score [3] | pull-down binding Z-score (TO-N3 (biotin conjugate)) | pull-down binding Z-score [4]
GAUGAAGAUUAAUCCCUAAUCCCCAACA [hsa-mir-6757] | -1.77 | -0.283 | -0.0684 | 0.0739 | 0.739
GAUGCUGUAUAUCUGAAAGGUAC [hsa-mir-101-2] | -0.649 | -0.357 | -0.144 | -0.126 | 0.383
GAUGCUGUCUAUUCUAAAGGUAC [hsa-mir-101-1] | -0.819 | -0.772 | -0.32 | -0.577 | 0.0666
GAUGGAGGAAUCACAUGAAUUCAUC [hsa-mir-2115] | 0.704 | -0.415 | -0.362 | -0.627 | -0.351
GAUGGAUUCUUAUGCUCCAUC [hsa-mir-136] | 0.328 | -0.326 | -0.443 | -0.631 | -0.9
GAUGGGAUUAGAAACCAUAUGUCUCAUC [hsa-mir-3617] | 0.264 | 0.0209 | -0.165 | -0.25 | -0.438
GAUGUAUCCAAGUACCCUGUGUUAUUUGGCAAUAAAUACAUC [hsa-mir-1298] | -1.2 | -0.204 | -0.361 | -1.27 | -0.35
GAUGUUUCUGCCAGUUUAGCGUC [hsa-mir-505] | -0.68 | 0.0284 | -0.0968 | 0.0886 | 0.324
GAUUAUUGUAAGCAGGAUCCAUUCAAUAAUC [hsa-mir-5188] | -0.228 | -0.19 | -0.383 | -0.366 | -0.703
GAUUCGCUUUACUUAUGACGAAUC [hsa-mir-382] | -0.449 | -0.268 | -0.107 | -0.424 | -0.716
GAUUCUGAUUCAGGGACCAAGAUUC [hsa-mir-544a] | 0.649 | 0.724 | 0.354 | 1.04 | 0.414
GAUUCUUGAGGCUUGGAAGAGUAAGGAUC [hsa-mir-6866] | -0.0295 | -0.0976 | 0.281 | 0.34 | 1.07
GAUUGAAGUUGAAUAGUGC [hsa-mir-3161] | 0.429 | -0.231 | 0.274 | -0.125 | 0.0514
GAUUGCUAAUAGUACCAAUC [hsa-mir-34c] | -0.0934 | 0.967 | -0.216 | 0.79 | -0.636
GAUUGGUCUGUGGUCCUCUC [hsa-mir-3615] | 0.109 | -0.569 | -0.217 | -0.565 | 0.498
GAUUGGUUAGCCUAAGACUUGUUCUGAUCCAAUC [hsa-mir-5701-1_5701-2_5701-3] | -0.75 | 0.546 | 0.14 | 0.513 | 0.061
GAUUUCUAUGAGAACAUC [hsa-mir-3675] | -0.499 | -0.704 | -0.57 | -1.02 | -0.95
GAUUUUUUAGAUUCUAAAGAAAC [hsa-mir-1255a] | -1.12 | -0.837 | -0.365 | -1.02 | -1.27
GCAAGGCUGUAGUGUGCACAGCCUUGA [hsa-mir-4452] | -0.383 | 0.945 | 0.127 | 0.936 | 0.583

Sequence | pull-down binding Z-score [1] | pull-down binding Z-score [2] | pull-down binding Z-score [3] | pull-down binding Z-score (TO-N3 (biotin conjugate)) | pull-down binding Z-score [4]
GCAAGGUUGUUGGUGAUAUGGCUUCCUCUC [hsa-mir-4685] | 0.872 | -0.179 | 0.0915 | 0.0508 | 0.538
GCAAUCAGGACUGGGUCAUUC [hsa-mir-6873] | -0.628 | 0.38 | 0.166 | 0.572 | 0.291
GCACCUGUUUGUGAC [hsa-mir-4718] | -1.21 | -0.491 | -0.276 | -0.457 | -0.201
GCACUCUGUAGUUUGGGUACACAGUGC [hsa-mir-5011] | 1.49 | -0.741 | -0.259 | -0.77 | -0.478
GCAGAAAUCACUCCAGGAGCAACUGA [hsa-mir-936] | -0.3 | -0.365 | 0.0585 | 0.625 | 0.712
GCAGAGAAGACAGUGAGCUUGCCAGUUCUGGUUUCCAACACUUCCUUUCCUGCG [hsa-mir-3911] | -1.12 | 0.56 | 0.236 | 0.975 | 1.3
GCAGAGCAGGACGCCGCUGCUGC [hsa-mir-8072] | -0.0779 | 0.701 | 0.0817 | 0.817 | 1.65
GCAGAUAGUGGUCCUCUCCGUGCUACCGC [hsa-mir-106b] | -0.198 | -0.0735 | -0.0832 | 0.316 | 1.16
GCAGAUUCUCUCUCUC [hsa-mir-4279] | -1.39 | 0.105 | -0.0368 | 0.189 | 0.316
GCAGCACUGUGCUGGGGAUGUUGC [hsa-mir-1301] | 1.24 | 1.08 | 0.078 | 1.04 | 0.858
GCAGCAGGCACCUGCUUCC [hsa-mir-6868] | -0.816 | 0.367 | 0.16 | 0.984 | 1.49
GCAGCCAGUCCUGUCUCACCGC [hsa-mir-6812] | -0.666 | -0.19 | -0.105 | 0.14 | 1.08
GCAGCCUUCUGCCUUUGGCUUUCUGAAGCGAGCUGA [hsa-mir-7158] | -0.699 | 0.327 | 0.292 | 0.769 | 1.09
GCAGCCUUGC [hsa-mir-4298] | 0.364 | 0.177 | -0.244 | 0.264 | 0.0238
GCAGCUAGUAAUAUGAGCCCAGUUGC [hsa-mir-153-2] | -0.831 | 0.0352 | -0.0986 | -0.011 | 0.128
GCAGCUAGUAUUCUCACUCCAGUUGC [hsa-mir-153-1] | -1.31 | -0.447 | -0.655 | -0.204 | 0.592
GCAGCUGGAAUUCAAGCCCUGCUGC [hsa-mir-6882] | -0.0183 | -0.477 | -0.319 | -0.475 | 0.0816
GCAGGCCGUGAACUCGUCGAGCUGCGCGUGCGGCCGGUGCUCA [hsa-mir-1199] | 0.693 | 0.55 | 0.103 | 1.47 | 2.02
